The test system of test [1] is murine uterine epithelial cells. The test is described as follows: Effect of rIFNγ and rTGFβ on GM-CSF production in cultured uterine epithelial cells (Example 2). The format is cell-based, mouse. Here is the method:
Uterine Epithelial Cell Cultures. Uterine epithelial cells prepared as previously described (Robertson et al., Biol Reprod 46:1069-1079 (1992)) were pooled from 4-6 estrous C57B1/6 or C57B1/6×Balb/c F1 mice and plated in 1 ml culture wells (Nunc, Roskilde, Germany) at 1-2×10^5 cells per ml in 500 μl of Dulbecco's modified Eagles medium containing 10% FCS, […] streptomycin sulphate and […] benzyl penicillin (DMEM +penicillin). After 4 h incubation at 37° C. in 5% CO2 to allow cell adherence, a further 500 μl of DMEM +penicillin, or DMEM +penicillin plus recombinant mouse IFNγ (rIFNγ) and/or recombinant human TGFβ1 (rTGFβ), were added. In some experiments, penicillin-free DMEM (DMEM −penicillin) was used throughout. Culture supernatants were collected and replaced with fresh medium at 16 hours, then collected again 24 hours later, at which time GM-CSF content was determined and adherent cells were quantified as previously described (Robertson et al., Biol Reprod 46:1069-1079 (1992)). All treatments were performed in duplicate or triplicate. rTGFβ and rIFNγ were obtained from R&D Systems, UK.
GM-CSF bioassay: GM-CSF was assayed using the GM-CSF dependant cell line FD 5/12, essentially as previously described (Robertson et al., Biol Reprod 46:1069-1079 (1992)). Cell proliferation was determined by pulsing with 1 μCi of [^3H]-thymidine per well for the last 6 h of the assay. The minimal detectable amount of GM-CSF was 20 pg/ml. The identity of the bioactivity in uterine epithelial cell cultures was confirmed using a goat polyclonal antibody to murine GM-CSF (DNAX, Palo Alto, Calif.) as previously described (Robertson et al., Biol Reprod 46:1069-1079 (1992)). GM-CSF production is expressed as ng GM-CSF/10^5 cells/24 h. Recombinant mouse GM-CSF was obtained from R&D Systems.

For test [2] the test system is unchanged. Description: Effect of IFNγ on GM-CSF synthesis in murine uterine epithelial cells (Example 3). In kind it is cell-based, mouse. How it is done: Uterine Epithelial Cell Cultures. Uterine epithelial cells prepared by pancreatin-trypsin digest as previously described (Robertson et al., (1992) Biol. Reprod. 46:1069-1079) were pooled from 4-6 estrous adult C57B1/6×CBA F1 female mice and plated in 1 ml culture wells (Nunc, Roskilde, Germany) at 1-2×10^5 cells per ml in 500 μl of RPMI containing 10% FCS and streptomycin (RPMI-FCS). Penicillin was omitted from culture media except where specified. After 4 h incubation at 37° C. in 5% CO2 to allow cell adherence, a further 500 μl of cytokines or antibodies in RPMI-FCS, or RPMI-FCS alone, were added. Cytokine treatments included recombinant mouse interferon-γ (rmIFNγ; R&D Systems), recombinant human transforming growth factor β1 (rhTGFβ1, R&D Systems), rhTGFβ2 (R&D Systems), rhTGFβ3 (OSI Pharmaceuticals). Antibody treatments included goat anti-mouse IFNγ receptor 1 (αIFNγR; R&D Systems AF1026) and hamster anti-mouse IFNγ (αIFNγ; R&D Systems MAB4851). Culture supernatants were collected and replaced with fresh complete RPMI-FCS alone at 16 hours, then collected again 24 hours later, at which time adherent cells were quantified as previously described (Robertson et al., (1992) Biol. Reprod. 46:1069-1079). The GM-CSF content of 24 h supernatants was determined by GM-CSF bioassay or immunoassay. All treatments were performed in duplicate or triplicate.
GM-CSF bioassay and immunoassay: Bioactive GM-CSF was assayed using the GM-CSF dependant cell line FD 5/12, essentially as previously described (Robertson et al., (1992) Biol. Reprod. 46:1069-1079). Cell proliferation was determined by the addition of 1 μCi of [^3H]-thymidine per well for the last 6 h of the assay. […] GM-CSF immunoactivity was in some experiments measured by commercial mouse GM-CSF specific ELISA (R & D Systems) according to the manufacturer's instructions.

Test [3] has as its system uterine luminal fluid content of GM-CSF. Description: Effect of IFN-γ treatment on GM-CSF content of uterine luminal fluids in mice (Example 7). The format is in vivo. Conditions: 5 ng or 20 ng transcervical on day 1 of pregnancy; fluids 7 hrs later; p=0.03 versus PBS control, treatment groups combined. How it is done: Mice were housed under specific pathogen-free conditions at the University of Adelaide Medical School Animal House on a 12:12 light-dark cycle, and were administered food and water ad libitum. Adult C57B1/6×CBA F1 females (7-10 weeks old) were caged with proven fertile Balb/c males for natural mating. The day of sighting a vaginal plug was nominated day 1 of pregnancy. Mice were randomly allocated to one of three groups and administered transcervical treatments of either 5 ng or 20 ng recombinant mouse IFN-γ (rmIFN-γ; R&D Systems) in 30 μl PBS containing 0.1% bovine serum albumin (PBS-BSA), or PBS-BSA alone (PBS control), at 0900 h on day 1. Treatments were delivered directly into the uterine lumen with the aid of a tom-cat catheter (Sovereign, St Louis Mo.), after removal of vaginal plugs using forceps to allow transcervical access. Mice were sacrificed 7 hrs later at 1600 h on day 1, and uterine luminal fluids were flushed in 1 ml PBS-BSA with a syringe and 26 gauge needle.
GM-CSF immunoactivity in uterine luminal fluids was measured by commercial mouse GM-CSF specific ELISA (R & D Systems) according to the manufacturer's instructions. Data are given as GM-CSF content in pg/ml uterine luminal fluid.

B1: rIFNγ: recombinant mouse IFNγ (R&D Systems) (protein, UniProt P01580 23-155, looked up)
Interferon gamma: HGTVIESLESLNNYFNSSGIDVEEKSLFLDIWRNWQKDGDMKILQSQIISFYLRLFEVLKDNQAISNNISVIESHLITTFFSNSKAKKDAFMSIAKFEVNNPQVQRQAFNELIRVVHQLLPESSLRKRKRSRC
Regarding B1, in test [1] (DMEM +penicillin), the “rIFNγ concentrations at which an inhibitory effect was not seen” value is reported as “less than 150 pg/ml”. Further, the “rIFN-γ concentration eliciting maximal decrease in GM-CSF production” value in test [1] (DMEM +penicillin, dose-dependent decrease in each of three experiments) is no less than 2.5 ng/mL. Further, in test [1] (DMEM -penicillin, three experiments), the “rIFNγ concentration giving maximal decrease in GM-CSF production” value is no less than 2.5 ng/mL. In addition, in test [1] (absence of penicillin), the “rIFNγ concentration at which inhibitory effect was still observed” value amounted to 2 pg/mL. Also, the “lowest effective concentration of rIFNγ” value in test [1] (in the presence of 0.5 ng/ml rTGFβ) was determined as 39 pg/mL. In test [1] (in the presence of 5 ng/ml of rTGFβ), the “lowest effective inhibitory concentration of rIFNγ” value is 2.5 ng/mL. Besides, the “rIFNγ concentration with maximal inhibition of rTGFβ induction of GM-CSF synthesis” value in test [1] (rTGFβ-stimulated cells, DMEM +penicillin) was no less than 2.5 ng/mL. Further, the “IFNγ concentration giving significant inhibition (GM-CSF synthesis <50% of control values)” value in test [2] is greater than 150 pg/mL. In test [2] (absence of penicillin), the “IFNγ concentration inhibiting GM-CSF synthesis (<50% of control values)” value was no less than 9.8 pg/mL. In test [2] (more than six experiments, penicillin omitted), the “IFNγ concentration at which inhibition of GM-CSF synthesis was evident” value was no less than 40 pg/mL. Also, the “effect on uterine luminal fluid content of GM-CSF” value in test [3] is reported as “reduce uterine luminal fluid content of GM-CSF”.

(Values after patent US20050272636A1, “Treatment and diagnosis of a reproductive disorder by measuring or inhibiting interferon-gamma” (Adelaide Research & Innovation Pty Ltd., priority 2002, published 2005).)
